In US20230201308A1, “TREATMENT OF CORONAVIRUS INFECTION WITH […]” (Eiger Biopharmaceuticals, Inc., priority 2020, published 2023):
Like-named read-outs stand apart in the source and are kept apart here.

System: SARS-CoV-2
[1] = High risk population, Brazil, N = 698
[2] = High risk population, Brazil, N = 698 vs placebo N = 827
[3] = ITT population (Table 20), n=916 vs placebo 1003
[4] = ITT preliminary, n=916 vs placebo 1020

B1: pegylated interferon lambda-1a (protein)
chain: MKPTTTGKGCHIGRFKSLSPQELASFKKARDALEESLKLKNWSCSSPVFPGNWDLRLLQVRERPVALEAELALTLKVLEAAAGPALEDVLDQPLHTLHHILSQLQACIQPQPTAGPRPRGRLHHWLHRLQEAPKKESAGCLEASVTFNLFRLLTRDLKYVADGNLSLRTSTHPEST
modifications: PEG
notes: 180 mcg subcutaneous injection
- Hospitalization or ER (any duration) for COVID-19: total [1]: 76
- Hospitalization or ER >6 h for COVID-19: percentage [1]: (3.2%)
- Hospitalization or ER >6 h for COVID-19: total [1]: 22
- Mechanical ventilation: percentage [1]: (0.6%)
- Mechanical ventilation: total [1]: 4
- All cause ER visit >6 h, hospitalization, or death: Pr (Superiority) [2]: 0.981
- All cause ER visit >6 h, hospitalization, or death: RR (95% CrI), estimated treatment effect [2]: 0.64 (0.42, 0.97)
- All cause ER visit, hospitalization, or death: Pr (Superiority) [2]: 0.883
- All cause ER visit, hospitalization, or death: RR (95% CrI), estimated treatment effect [2]: 0.86 (0.68, 1.10)
- All cause death or hospitalization due to COVID-19: Pr (Superiority) [2]: 0.924
- All cause death or hospitalization due to COVID-19: RR (95% CrI), estimated treatment effect [2]: 0.69 (0.41, 1.14)
- Days of hospitalization: MD (95% CrI), estimated treatment effect [2]: −1.39 (−4.38, 1.20)
- Days of hospitalization: Pr (Superiority) [2]: 0.8509
- Days on mechanical ventilation: MD (95% CrI), estimated treatment effect [2]: −4.47 (−6.89, 3.09)
- Days on mechanical ventilation: Pr (Superiority) [2]: 0.9052
- Days to death for COVID-19: HR (95% CrI), estimated treatment effect [2]: 0.23 (0.01, 1.79)
- Days to death for COVID-19: Pr (Superiority) [2]: 0.9080
- Days to hospitalization for COVID-19: HR (95% CrI), estimated treatment effect [2]: 0.58 (0.33, 0.98)
- Days to hospitalization for COVID-19: Pr (Superiority) [2]: 0.9780
- Days to hospitalization or ER visit >6 h for COVID-19: HR (95% CrI), estimated treatment effect [2]: 0.47 (0.28, 0.76)
- Days to hospitalization or ER visit >6 h for COVID-19: Pr (Superiority) [2]: 0.9992
- Days to hospitalization or death for COVID-19: HR (95% CrI), estimated treatment effect [2]: 0.62 (0.35, 1.05)
- Days to hospitalization or death for COVID-19: Pr (Superiority) [2]: 0.9610
- Days to recovery: HR (95% CrI), estimated treatment effect [2]: 0.93 (0.83, 1.04)
- Days to recovery: Pr (Superiority) [2]: 0.8862
- Death due to COVID-19: Pr (Superiority) [2]: 0.845
- Death due to COVID-19: RR (95% CrI), estimated treatment effect [2]: 0.42 (0.05, 2.08)
- Death or hospitalization due to COVID-19: Pr (Superiority) [2]: 0.961
- Death or hospitalization due to COVID-19: RR (95% CrI), estimated treatment effect [2]: 0.63 (0.37, 1.05)
- Hospitalization for COVID-19 (excluding those resulting in death): Pr (Superiority) [2]: 0.928
- Hospitalization for COVID-19 (excluding those resulting in death): RR (95% CrI), estimated treatment effect [2]: 0.67 (0.39, 1.14)
- Hospitalization or ER (any duration) for COVID-19: Pr (Superiority) [2]: 0.991
- Hospitalization or ER (any duration) for COVID-19: RR (95% CrI), estimated treatment effect [2]: 0.72 (0.56, 0.95)
- Hospitalization or ER >6 h for COVID-19: Pr (Superiority) [2]: 0.999
- Hospitalization or ER >6 h for COVID-19: RR (95% CI), estimated treatment effect [2]: 0.49 (0.30, 0.78)
- Mechanical ventilation: Pr (Superiority) [2]: 0.717
- Mechanical ventilation: RR (95% CrI), estimated treatment effect [2]: 0.72 (0.21, 2.21)
- All cause ER visit >6 h, hospitalization, or death, % of patients [3]: (3.7%)
- All cause ER visit >6 h, hospitalization, or death, Pr (Superiority) [3]: 0.987
- All cause ER visit >6 h, hospitalization, or death, RR (95% CrI) vs placebo [3]: 0.64 (0.42, 0.95)
- All cause ER visit, hospitalization, or death, % of patients [3]: (13.5%)
- All cause ER visit, hospitalization, or death, Pr (Superiority) [3]: 0.831
- All cause ER visit, hospitalization, or death, RR (95% CrI) vs placebo [3]: 0.90 (0.72, 1.12)
- All cause death or hospitalization due to COVID-19, % of patients [3]: (2.6%)
- All cause death or hospitalization due to COVID-19, RR (95% CrI) vs placebo [3]: 0.66 (0.40, 1.07)
- Days of hospitalization, IRR (95% CrI) vs placebo [3]: −1.02 (−3.86, 1.37)
- Days on mechanical ventilation, IRR (95% CrI) vs placebo [3]: −4.47 (−6.89, 3.09)
- Days to death for COVID-19, HR (95% CrI) vs placebo [3]: 0.22 (0.01, 1.64)
- Days to hospitalization for COVID-19, HR (95% CrI) vs placebo [3]: 0.57 (0.33, 0.95)
- Days to hospitalization or ER visit >6 h for COVID-19, HR (95% CrI) vs placebo [3]: 0.47 (0.29, 0.73)
- Days to hospitalization or ER visit >6 h for COVID-19, Pr (Superiority) [3]: 0.999
- Days to hospitalization or death for COVID-19, HR (95% CrI) vs placebo [3]: 0.59 (0.35, 1.00)
- Days to recovery, HR (95% CrI) vs placebo [3]: 0.94 (0.85, 1.05)
- Death due to COVID-19, % of patients [3]: (0.1%)
- Death due to COVID-19, RR (95% CrI) vs placebo [3]: 0.40 (0.05, 1.95)
- Death or hospitalization due to COVID-19, % of patients [3]: (2.4%)
- Death or hospitalization due to COVID-19, RR (95% CrI) vs placebo [3]: 0.61 (0.36, 0.99)
- Hospitalization or ER (any duration) for COVID-19, % of patients [3]: (10.8%)
- Hospitalization or ER (any duration) for COVID-19, Pr (Superiority) [3]: 0.981
- Hospitalization or ER (any duration) for COVID-19, RR (95% CrI) vs placebo [3]: 0.78 (0.61, 0.99)
- Hospitalization or ER >6 h for COVID-19, % of patients [3]: (2.7%)
- Hospitalization or ER >6 h for COVID-19, Pr (Superiority) [3]: 0.999
- Hospitalization or ER >6 h for COVID-19, RR (95% CI) vs placebo [3]: 0.49 (0.30, 0.76)
- Mechanical ventilation, % of patients [3]: (0.4%)
- Mechanical ventilation, RR (95% CrI) vs placebo [3]: 0.66 (0.20, 2.03)
- Days to hospitalization for COVID-19, IQR (ITT preliminary, n=916): 3.0
- Days to hospitalization for COVID-19, Mean (ITT preliminary, n=916): 5.10
- Days to hospitalization for COVID-19, Median (ITT preliminary, n=916): 4.0
- Days to hospitalization or ER visit ≥6 h for COVID-19, IQR (ITT preliminary, n=916): 3.0
- Days to hospitalization or ER visit ≥6 h for COVID-19, Mean (ITT preliminary, n=916): 5.8
- Days to hospitalization or ER visit ≥6 h for COVID-19, Median (ITT preliminary, n=916): 4.0
- Days until death due to COVID-19, IQR (ITT preliminary, n=916): 16.0
- Days until death due to COVID-19, Mean (ITT preliminary, n=916): 22
- Days until death due to COVID-19, Median (ITT preliminary, n=916): 22.0
- Any cause Death, % of patients (ITT preliminary, n=916, 28 days): (0.3%)
- ER visits over 6 hrs, % of patients [4]: 0.7%
- Relative Reduction in Risk, Deaths [4]: 0.72
- Relative Reduction in Risk, ER visits over 6 hrs [4]: 0.68
- Relative Reduction in Risk, Hospitalizations [4]: 0.43
- Relative Reduction in Risk, Hospitalizations or ER visits over 6 hrs [4]: 0.50
- Death due to COVID-19, RR (95% CrI) vs placebo (ITT preliminary, n=916 vs placebo 1020, 28 days): 0.40 (0.05, 2.00)
